The record followed here is article PMC6876245.

Like-named read-outs stand apart in the source and are kept apart here.

Data set [1] addresses T1, POT1;TPP1 (human;human, UniProt Q9NUX5;Q96AP0 1-634;3-248, |). Nature of the data set: EMSA. (In EMSA bound probe runs differently from free probe, usually more slowly.)
For data set [2], the target named is T2, POT1 Y36N;TPP1 (human;human, UniProt Q9NUX5;Q96AP0 1-634;3-248, Y36N|). The data set can be described thus: EMSA.
Target sequence in this assay (Q9NUX5 whole entry Y36N, chain 1 of 2): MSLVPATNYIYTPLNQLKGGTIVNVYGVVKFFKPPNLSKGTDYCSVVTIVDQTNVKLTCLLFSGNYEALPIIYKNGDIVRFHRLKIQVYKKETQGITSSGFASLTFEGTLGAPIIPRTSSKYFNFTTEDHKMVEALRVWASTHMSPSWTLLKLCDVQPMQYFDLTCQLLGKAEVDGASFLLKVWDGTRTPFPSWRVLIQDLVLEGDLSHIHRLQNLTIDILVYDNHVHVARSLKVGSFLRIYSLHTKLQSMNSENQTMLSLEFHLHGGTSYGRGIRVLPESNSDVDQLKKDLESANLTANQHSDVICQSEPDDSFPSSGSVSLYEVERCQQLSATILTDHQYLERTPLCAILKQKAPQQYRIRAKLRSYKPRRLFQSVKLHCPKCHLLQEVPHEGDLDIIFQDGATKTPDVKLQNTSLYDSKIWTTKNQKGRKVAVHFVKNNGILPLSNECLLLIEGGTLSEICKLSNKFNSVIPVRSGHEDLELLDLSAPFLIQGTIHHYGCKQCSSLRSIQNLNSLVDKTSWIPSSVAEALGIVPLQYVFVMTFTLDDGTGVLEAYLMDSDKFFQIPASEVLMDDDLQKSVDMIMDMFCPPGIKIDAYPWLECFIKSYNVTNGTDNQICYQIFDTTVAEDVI
Target sequence in this assay (Q96AP0 3-248, chain 2 of 2): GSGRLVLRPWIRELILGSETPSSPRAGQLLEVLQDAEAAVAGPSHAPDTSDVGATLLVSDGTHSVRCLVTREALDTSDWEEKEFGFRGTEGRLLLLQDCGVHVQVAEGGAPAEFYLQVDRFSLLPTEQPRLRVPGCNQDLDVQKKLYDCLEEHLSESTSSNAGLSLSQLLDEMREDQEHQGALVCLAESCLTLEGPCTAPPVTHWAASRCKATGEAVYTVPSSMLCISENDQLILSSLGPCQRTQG
Data set [3] deals with T3, POT1 H266L;TPP1 (human;human, UniProt Q9NUX5;Q96AP0 1-634;3-248, H266L|). The data set can be described thus: EMSA.
Target sequence in this assay (Q9NUX5 whole entry H266L, chain 1 of 2): as the sequence (Q9NUX5 whole entry Y36N, chain 1 of 2) above, with N36Y, H266L counted along it
Target sequence in this assay (Q96AP0 3-248, chain 2 of 2): as the sequence (Q96AP0 3-248, chain 2 of 2) above
Data set [4] deals with T4, POT1-N (human, UniProt Q9NUX5 1-340).
T4 sequence: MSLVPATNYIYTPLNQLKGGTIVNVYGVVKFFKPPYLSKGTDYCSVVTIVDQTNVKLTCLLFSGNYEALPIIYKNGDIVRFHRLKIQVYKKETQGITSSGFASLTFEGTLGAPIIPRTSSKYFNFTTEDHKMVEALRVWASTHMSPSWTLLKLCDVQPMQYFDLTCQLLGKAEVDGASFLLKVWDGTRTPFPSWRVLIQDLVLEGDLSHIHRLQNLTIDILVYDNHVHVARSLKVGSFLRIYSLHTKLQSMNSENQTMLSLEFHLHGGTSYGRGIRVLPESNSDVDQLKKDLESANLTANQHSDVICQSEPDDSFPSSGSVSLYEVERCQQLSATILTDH
Nature of the data set: hydroxyl radical footprinting MS.

For data set [5], the target named is T2, POT1 Y36N;TPP1. The data set can be described thus: EMSA. The source holds these as a separate data set.
Target sequence in this assay (Q96AP0 3-248, stated change not applied, one chain of several): as the sequence (Q96AP0 3-248, chain 2 of 2) above
The target in data set [6] is T4, POT1-N. Nature of the data set: hydroxyl radical footprinting MS. The source holds these as a separate data set.
Data set [7] has as its target T3, POT1 H266L;TPP1. Nature of the data set: stopped-flow CD.
Target sequence in this assay (Q96AP0 3-248, stated change not applied, one chain of several): as the sequence (Q96AP0 3-248, chain 2 of 2) above
In data set [8] the target is T1, POT1;TPP1. Nature of the data set: EMSA. This is another data set of the same source.

T1 sequence (Q96AP0 3-248, one chain of several): as the sequence (Q96AP0 3-248, chain 2 of 2) above

As usually defined, the Kd is a measure of binding affinity in units of concentration. A higher Kd goes with weaker binding. For GGTTAGGGTTAG (ssDNA) [hT12], the values for the Kd in data set [1], in data set [2] and in data set [3] were 1 ± 0.5 nM, 2.2 ± 1.1 nM and 29.1 ± 9.3 nM, respectively. The binding result in data set [4] is “binds”.

B1: hT72 (ssDNA)
DNA: GGTTAGGGTTAGGGTTAGGGTTAGGGTTAGGGTTAGGGTTAGGGTTAGGGTTAGGGTTAGGGTTAGGGTTAG
As for B1, the “apparent K (half saturation)” value came out at 4.5 ± 0.4 nM in data set [5] and 6.9 ± 0.6 nM in data set [8]. Also, the binding result in data set [6] and in data set [7] was “binds” in each case.
